Laboratory results as given in article PMC2927720.

B1: CAGGCAG probe (dsDNA)
DNA 1: CTATTCAGGCAGACACTGTA
DNA 2: TACAGTGTCTGCCTGAATAG
B2: CAGGTAG probe (dsDNA)
DNA 1: CTATTCAGGTAGACACTGTA
DNA 2: TACAGTGTCTACCTGAATAG

Experiments:
[1] = target: rGrh (Grainyhead, full-length recombinant) (UniProt P13002-2 1-1032); experiment: EMSA
[2] = target: rZld (Zelda, full-length recombinant) (UniProt Q9VWC6 1-1596); experiment: EMSA
rZld (Zelda, full-length recombinant), sequence (Q9VWC6 whole entry): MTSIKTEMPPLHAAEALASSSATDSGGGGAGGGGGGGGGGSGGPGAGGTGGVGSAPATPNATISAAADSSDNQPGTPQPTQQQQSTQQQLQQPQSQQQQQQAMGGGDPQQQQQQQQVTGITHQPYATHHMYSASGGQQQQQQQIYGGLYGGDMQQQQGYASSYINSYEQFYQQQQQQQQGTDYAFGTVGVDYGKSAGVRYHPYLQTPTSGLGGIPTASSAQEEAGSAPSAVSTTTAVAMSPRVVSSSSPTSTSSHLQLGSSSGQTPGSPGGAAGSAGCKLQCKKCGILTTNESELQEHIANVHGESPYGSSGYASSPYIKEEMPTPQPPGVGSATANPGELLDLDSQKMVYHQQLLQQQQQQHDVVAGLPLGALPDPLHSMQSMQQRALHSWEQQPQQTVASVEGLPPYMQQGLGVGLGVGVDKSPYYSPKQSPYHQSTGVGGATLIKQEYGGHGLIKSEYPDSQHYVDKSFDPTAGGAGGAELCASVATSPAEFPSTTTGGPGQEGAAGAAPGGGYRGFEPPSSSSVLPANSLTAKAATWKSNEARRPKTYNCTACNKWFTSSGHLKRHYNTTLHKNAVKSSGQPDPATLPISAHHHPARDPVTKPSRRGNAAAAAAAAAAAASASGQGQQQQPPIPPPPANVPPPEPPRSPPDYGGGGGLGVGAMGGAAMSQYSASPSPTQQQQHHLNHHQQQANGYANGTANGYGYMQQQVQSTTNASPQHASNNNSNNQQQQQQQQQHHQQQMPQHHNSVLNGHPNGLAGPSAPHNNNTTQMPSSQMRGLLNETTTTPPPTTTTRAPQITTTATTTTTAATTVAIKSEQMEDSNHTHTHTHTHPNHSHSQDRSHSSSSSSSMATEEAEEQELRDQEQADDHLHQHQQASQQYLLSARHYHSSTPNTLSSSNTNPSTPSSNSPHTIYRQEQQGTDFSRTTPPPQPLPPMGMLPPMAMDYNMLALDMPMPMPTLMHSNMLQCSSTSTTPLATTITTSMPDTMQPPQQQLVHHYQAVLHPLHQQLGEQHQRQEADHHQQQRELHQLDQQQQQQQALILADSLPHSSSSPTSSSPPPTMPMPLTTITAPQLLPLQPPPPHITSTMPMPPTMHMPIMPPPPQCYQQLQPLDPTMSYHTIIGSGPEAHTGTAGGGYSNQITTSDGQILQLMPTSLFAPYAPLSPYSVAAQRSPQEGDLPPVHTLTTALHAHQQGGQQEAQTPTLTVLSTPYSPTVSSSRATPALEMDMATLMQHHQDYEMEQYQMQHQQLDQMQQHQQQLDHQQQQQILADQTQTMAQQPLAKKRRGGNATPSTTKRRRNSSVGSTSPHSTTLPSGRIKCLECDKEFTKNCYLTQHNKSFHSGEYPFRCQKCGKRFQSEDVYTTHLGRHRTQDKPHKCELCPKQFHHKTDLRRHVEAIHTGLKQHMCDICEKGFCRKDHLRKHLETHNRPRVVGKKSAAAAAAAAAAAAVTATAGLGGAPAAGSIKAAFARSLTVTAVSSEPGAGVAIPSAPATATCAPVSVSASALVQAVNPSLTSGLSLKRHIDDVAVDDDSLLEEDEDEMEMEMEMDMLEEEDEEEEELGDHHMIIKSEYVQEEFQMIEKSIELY

| Binder | binding result [1] | binding result [2] |
| --- | --- | --- |
| B1 | binds | – |
| B2 | binds | binds |
